The source of these data is PMC3836802, “LOV Takes a Pick: Thermodynamic and Structural Aspects of the Flavin-LOV-Interaction of the Blue-Light Sensitive Photoreceptor YtvA from Bacillus subtilis” (PLoS ONE, 2013).

Data set [1] addresses T1, YLOV (Apo-YLOV; LOV domain of YtvA, aa 1-128) (Bacillus subtilis, UniProt O34627, M1G).
T1 construct: gene pfyP; LOV domain with N-terminal cap, aa 1-128; apo form in monomer-dimer equilibrium; 15N-labelled for ITC
T1 sequence (O34627 1-128 M1G): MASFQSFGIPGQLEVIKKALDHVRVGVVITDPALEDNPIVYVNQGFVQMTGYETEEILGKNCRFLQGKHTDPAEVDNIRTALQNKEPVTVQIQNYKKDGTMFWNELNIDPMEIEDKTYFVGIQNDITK
Briefly: isothermal titration calorimetry. The data set is classed as binding. The settings on record: 25 °C; 20 mM Tris-HCl pH 7.5, 150 mM NaCl, 500 µM TCEP; dark; apoprotein titrated into flavin; single-site global fit; brackets 95% confidence interval. From the text:
isothermal titration calorimetry on YLOV (Apo-YLOV; LOV domain of YtvA, aa 1-128)

A further data set concerns the target YtvA (Bacillus subtilis) (UniProt O34627). The settings on record: cited from earlier work.
Data set [2] concerns the target YtvA LOV domain 21-147 (Bacillus subtilis) (UniProt O34627). The settings on record: cited from earlier work.
Data set [3] deals with the molecule itself. The data set can be described thus: AUC; sedimentation velocity, 45,000 rpm, 20 °C, absorbance at 280 nm; Apo-YtvA at 15, 30 and 60 µM in buffer H (20 mM K-phosphate pH 6.5, 50 mM NaCl, 5 mM DTT, 0.1% azide); c(S) analysis with Sedfit; dimer to monomers.
Data set [4] deals with the molecule itself. Briefly: AUC; sedimentation velocity, 45,000 rpm, 25 °C, absorbance at 280 nm; Apo-YLOV at 17.5, 35 and 70 µM in buffer G (20 mM Tris-HCl pH 7.5, 150 mM NaCl, 500 µM TCEP); c(S) analysis with Sedfit; dimer to monomers; the KD is called only an estimate.

Where a chain is given by its changes, count along the chain named.

As to `Cc1cc2nc3c(=O)[nH]c(=O)nc-3n(C[C@H](O)[C@H](O)[C@H](O)COP(=O)(O)OP(=O)(O)OC[C@H]3O[C@@H](n4cnc5c(N)ncnc54)[C@H](O)[C@@H]3O)c2cc1C` [FAD], the Kd in data set [1] was determined as 224 nM. On the same count and under the same terms, for `Cc1cc2nc3c(=O)[nH]c(=O)nc-3n(C[C@H](O)[C@H](O)[C@H](O)COP(=O)(O)O)c2cc1C` [FMN] the value was 715 nM. The same measure, in the same setting: for `Cc1cc2nc3c(=O)[nH]c(=O)nc-3n(C[C@H](O)[C@H](O)[C@H](O)CO)c2cc1C` [RF] the value was 351 nM. As to YtvA (from UniProt O34627), in the data set with YtvA (Bacillus subtilis), the dissociation constant (Kd) is under 300 nM. As to “YtvA LOV domain 21-147 (from UniProt O34627)”, in data set [2], the equilibrium dissociation constant (Kd) was under 200 nM.

B1: Apo-YtvA (deflavinated full length YtvA, aa 1 – 261) (natural protein, Bacillus subtilis, UniProt O34627 1-261, looked up)
chain: GASFQSFGIPGQLEVIKKALDHVRVGVVITDPALEDNPIVYVNQGFVQMTGYETEEILGKNCRFLQGKHTDPAEVDNIRTALQNKEPVTVQIQNYKKDGTMFWNELNIDPMEIEDKTYFVGIQNDITKQKEYEKLLEDSLTEITALSTPIVPIRNGISALPLVGNLTEERFNSIVCTLTNILSTSKDDYLIIDLSGLAQVNEQTADQIFKLSHLLKLTGTELIITGIKPELAMKMNKLDANFSSLKTYSNVKDAVKVLPIM
notes: YtvA, blue-light photoreceptor of Bacillus subtilis, full length, residues 1-261 (LOV domain aa 21-126, Jα-helix aa 127-147, STAS domain aa 148-261); Met1 replaced by the Gly left after TEV cleavage; source: TEV cleavage; not shown: His tag, N-terminal, cleaved
Consider B1, for which the “stoichiometry N” value in data set [3] is 2.

B2: Apo-YLOV (deflavinated extended LOV domain of YtvA, aa 1 – 128) (domain or fragment, Bacillus subtilis, UniProt O34627 1-128, looked up)
chain: T1 sequence (O34627 1-128 M1G) with M1G
notes: YtvA, blue-light photoreceptor of Bacillus subtilis, residues 1-128 (N-terminal cap and LOV domain); TEV cleavage leaves a Gly at the N-terminus; the forward primer reads Gly-Ala-Ser-Phe-Gln, so the Gly stands in the place of Met1; also called YtvA-LOV domain; not shown: His tag, N-terminal, cleaved
With B2, in data set [4], the dissociation constant Kd is about 14000 nM and the “stoichiometry N” value was 2.
